The values below come from US20240239891A1 (Stanford University, published 2024).

Experiment [1] deals with T1, extracellular domain (ECD) of human GOLIATH (RNF130) (human, UniProt Q86XS8 28-194).
T1 construct: extracellular domain; also called GOLIATH ECD
T1 sequence (looked up): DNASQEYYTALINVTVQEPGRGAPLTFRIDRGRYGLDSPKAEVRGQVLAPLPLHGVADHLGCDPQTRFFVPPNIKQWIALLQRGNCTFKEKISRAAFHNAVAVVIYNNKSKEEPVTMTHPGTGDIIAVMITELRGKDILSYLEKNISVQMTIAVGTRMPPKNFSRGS
The experiment in a line: SPR (Biacore), titration at equilibrium, nanobody on ECD. (Surface plasmon resonance follows binding to a sensor surface in real time, without labels.)

Experiment [2] concerns the target T2, extracellular domain (ECD) of human GRAIL (RNF128) (human, UniProt Q8TEB7 39-207, limits assumed).
T2 construct: extracellular domain; also called GRAIL ECD
T2 sequence (looked up): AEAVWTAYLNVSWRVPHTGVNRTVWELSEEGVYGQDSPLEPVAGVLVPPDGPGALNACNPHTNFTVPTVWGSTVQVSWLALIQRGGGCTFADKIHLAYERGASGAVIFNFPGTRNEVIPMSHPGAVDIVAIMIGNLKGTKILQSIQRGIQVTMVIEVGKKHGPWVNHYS
The experiment in a line: SPR (Biacore), titrations at equilibrium, Biacore Analysis Software; column ECD GRAIL (hRNF128).

For experiment [3], the target named is T3, extracellular domain (ECD) of human GODZILLA (RNF167) (human, UniProt Q9H6Y7 25-173, limits assumed).
T3 construct: extracellular domain; also called GODZILLA ECD
Kind of experiment: SPR (Biacore), ligand hRNF167 ECD (GODZILLA), analyte GOLIATH-F8 [CONT. 3].

Experiment [4] addresses T2, extracellular domain (ECD) of human …. The experiment in a line: SPR (Biacore), ligand hRNF128 ECD (GRAIL), analyte GOLIATH-F2 [CONT. 2].
Experiment [5] addresses T3, extracellular domain (ECD) of human …. Kind of experiment: SPR (Biacore), ligand hRNF167 ECD (GODZILLA), analyte GOLIATH-F2 [CONT. 2].
Experiment [6] has as its target T4, hZNRF3 ECD.
T4 construct: The human half of m19, which leaves the species open; also called extracellular domain of human ZNRF3
T4 chain: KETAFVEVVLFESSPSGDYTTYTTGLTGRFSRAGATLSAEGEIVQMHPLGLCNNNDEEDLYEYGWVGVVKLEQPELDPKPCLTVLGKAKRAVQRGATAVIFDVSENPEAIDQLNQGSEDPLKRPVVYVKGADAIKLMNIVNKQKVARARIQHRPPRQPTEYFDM
The experiment in a line: SPR (Biacore), ligand hZNRF3 ECD, nanobody as analyte.

For experiment [7], the target named is T5, mZNRF3 ECD.
T5 construct: The mouse half of m19, which leaves the species open; also called extracellular domain of mouse ZNRF3
T5 chain: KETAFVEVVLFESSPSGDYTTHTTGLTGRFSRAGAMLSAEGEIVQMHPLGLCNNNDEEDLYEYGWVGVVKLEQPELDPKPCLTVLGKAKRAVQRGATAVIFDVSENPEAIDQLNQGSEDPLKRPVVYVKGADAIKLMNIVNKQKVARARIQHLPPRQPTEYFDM
Kind of experiment: SPR (Biacore), ligand mZNRF3 ECD, nanobody as analyte.

The target of experiment [8] is T6, extracellular domain (ECD) of human or mouse ZNRF3 (human or mouse).
T6 construct: extracellular domain; also called ZNRF3 ECD
The experiment in a line: SPR (Biacore), nanobody on ECD.

The target in experiment [9] is T7, hRNF43 ECD.
T7 construct: The human half of m18, which leaves the species open; also called extracellular domain of human RNF43
T7 chain: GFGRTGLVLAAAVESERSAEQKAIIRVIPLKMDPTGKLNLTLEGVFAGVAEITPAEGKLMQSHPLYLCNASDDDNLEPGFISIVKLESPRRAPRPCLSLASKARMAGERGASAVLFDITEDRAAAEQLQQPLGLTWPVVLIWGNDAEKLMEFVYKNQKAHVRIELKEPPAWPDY
Kind of experiment: SPR (Biacore), ligand hRNF43 ECD, nanobody as analyte.

The target of experiment [10] is T8, mRNF43 ECD.
T8 construct: The mouse half of m18, which leaves the species open; also called extracellular domain of mouse RNF43
T8 chain: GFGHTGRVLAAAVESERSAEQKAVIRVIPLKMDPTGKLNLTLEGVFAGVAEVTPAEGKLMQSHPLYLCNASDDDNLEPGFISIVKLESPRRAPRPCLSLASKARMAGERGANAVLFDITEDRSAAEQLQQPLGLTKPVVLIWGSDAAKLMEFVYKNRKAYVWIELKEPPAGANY
The experiment in a line: SPR (Biacore), ligand mRNF43 ECD, nanobody as analyte.

Experiment [11] concerns the target T9, extracellular domain (ECD) of human or mouse RNF43 (human or mouse).
T9 construct: extracellular domain; also called RNF43 ECD
Kind of experiment: SPR (Biacore), nanobody on ECD.

For experiment [12], the target named is T1, extracellular domain (ECD) of human …. The experiment in a line: SPR (Biacore), titrations at equilibrium, Biacore Analysis Software; row GRAIL-E1, column GOLIATH (hRNF130).
The target in experiment [13] is T3, extracellular domain (ECD) of human …. Kind of experiment: SPR (Biacore), titrations at equilibrium, Biacore Analysis Software; row GRAIL-E1, column GODZILLA (hRNF167).
Experiment [14] addresses T2, extracellular domain (ECD) of human …. The experiment in a line: SPR (Biacore), titration at equilibrium, nanobody on ECD.
Experiment [15] addresses T3, extracellular domain (ECD) of human …. The experiment in a line: SPR (Biacore), titrations at equilibrium, Biacore Analysis Software; row GRAIL-D1, column GODZILLA (hRNF167).
The target in experiment [16] is T1, extracellular domain (ECD) of human …. Kind of experiment: SPR (Biacore), ligand hRNF130 ECD (GOLIATH), analyte GRAIL-D1.

B1: GOLIATH (RNF130) VHH of SEQ ID NO: 8 (VHH)
VHH: QVQLQESGGGLVQAGGSLRLSCAASGTISFIGYMGWYRQAPGKERELVASIASGTSTYYADSVKGRFTISRDNAKNTVYLQMNSLKPEDTAVYYCAATQYIQDAHRYWGQGTQVTVSS
notes: also called GOLIATH nanobody
By Kd is commonly meant a measure of binding affinity in units of concentration. A higher Kd goes with a looser complex. Turning to B1, the Kd amounted to 130 nM in experiment [1] and 70.2 nM in experiment [2]. Also, the binding result in [3] was “no binding (tested: 2000 (unit not printed))”.

B2: GOLIATH (RNF130) VHH of SEQ ID NO: 7 (VHH)
VHH: QVQLQESGGGLVQAGGSLRLSCAASGTISVIGYMGWYRQAPGKERELVASIASGTSTYYADSVKGRFTISRDNAKNTVYLQMNSLKPEDTAVYYCAATHYIQDAHRYWGQGTQVTVSS
notes: also called GOLIATH nanobody
Turning to B2, the binding result in experiment [4] and in experiment [5] was “no binding (tested: 4000 (unit not printed))” in each case.

B3: ZNRF3 VHH of SEQ ID NO: 14 (VHH)
VHH: QVQLQESGGGLVQAGGSLRLSCAASGTISYAHIMGWYRQAPGKERELVAGISQGSITNYADSVKGRFTISRDNAKNTVYLQMNSLKPEDTAVYYCAVISYDYIKSVPFRYWGQGTQVTVSS
notes: also called ZNRF3 nanobody
B3: the binding result in [6] and in experiment [7] was “binds” in each case. The affinity in experiment [8], expressed as Kd, was 0.7 nM.

B4: ZNRF3 VHH of SEQ ID NO: 13 (VHH)
VHH: QVQLQESGGGLVQAGGSLRLSCAASGTIFYTLFMGWYRQAPGKEREFVAGIGRGGITYYADSVKGRFTISRDNAKNTVYLQMNSLKPEDTAVYYCAVWYDFLHSDSQAYSYWGQGTQVTVSS
notes: also called ZNRF3 nanobody
B4 gave an equilibrium dissociation constant (Kd) in experiment [8] of 18.1 nM. That is a double-digit nanomolar value.

B5: RNF43 VHH of SEQ ID NO: 11 (VHH)
VHH: QVQLQESGGGLVQAGGSLRLSCAASGTIFGLSDMGWYRQAPGKEREFVAAIAGGTITYYADSVKGRFTISRDNAKNTVYLQMNSLKPEDTAVYYCAAYKYDERYHSYWGQGTQVTVSS
notes: also called RNF43 nanobody
B5: the binding result in [9] and in experiment [10] was “binds” throughout. In [11], the Kd worked out at 163 nM.

B6: GRAIL (RNF128) VHH of SEQ ID NO: 2 (VHH)
VHH: QVQLQESGGGLVQAGGSLRLSCAASGNISVQLDMGWYRQAPGKEREFVAAINQGTTTYYADSVKGRFTISRDNAKNTVYLQMNSLKPEDTAVYYCAVYLYDIWNHPYWGQGTQVTVSS
notes: also called E1; GRAIL-E1
For the molecule B6, the binding result in experiment [12] and in [13] was “no binding” in each case. The molecule also gave a Kd in experiment [14] of 7.92 nM.

B7: GRAIL (RNF128) VHH of SEQ ID NO: 1 (VHH)
VHH: QVQLQESGGGLVQAGGSLRLSCAASGYIFYGVHMGWYRQAPGKEREFVAAIDLGTTTYYADSVKGRFTISRDNAKNTVYLQMNSLKPEDTAVYYCAVYFDGLTNLPYWGQGTQVTVSS
notes: Purified nanobody; also called GRAIL nanobody
B7 displayed a Kd in experiment [14] of 8.99 nM. The values for the binding result in experiment [15] and in experiment [16] were “no binding” and “no binding (tested: 500 (unit not printed))”, respectively.

B8: GRAIL (RNF128) VHH of SEQ ID NO: 4 (VHH)
VHH: QVQLQESGGGLVQAGGSLRLSCAASGTISYYYAMGWYRQAPGKEREFVAAIDLGTSTYYADSVKGRFTISRDNAKNTVYLQMNSLKPEDTAVYYCAAWSDYVTELPYWGQGTQVTVSS
notes: also called GRAIL nanobody
In [14], B8 had a Kd of 148 nM.

B9: RNF43 VHH of SEQ ID NO: 12 (VHH)
VHH: QVQLQESGGGLVQAGGSLRLSCAASGSIFWKPVMGWYRQAPGKEREFVAAITSGTNTYYADSVKGRFTISRDNAKNTVYLQMNSLKPEDTAVYYCAVDDYDVVEYPYWGQGTQVTVSS
notes: also called RNF43 nanobody
In experiment [11], B9 yielded a Kd of 41.5 nM. That is a double-digit nanomolar value.
